Experimental data as given in US7166764B2, “Noc2 knockout mouse” (JCR Pharmaceuticals Co., Ltd., priority 2004, dated 2007).

T1: Rab5A (Homo sapiens, UniProt P20339)
T1 construct: Full-length Rab3A, B, C and D and Rab5 cDNAs were subcloned into pFLAG-CMV-2 (SIGMA); expressed in transfected cells; host or cells: COS-1 cells (lysate)
T1 sequence (P20339 1-215): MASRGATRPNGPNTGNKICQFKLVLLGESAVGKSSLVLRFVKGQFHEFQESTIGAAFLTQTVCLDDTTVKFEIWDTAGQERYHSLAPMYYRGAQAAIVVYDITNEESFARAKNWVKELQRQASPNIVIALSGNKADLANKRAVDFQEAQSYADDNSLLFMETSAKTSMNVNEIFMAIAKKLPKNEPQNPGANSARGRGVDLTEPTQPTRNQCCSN


Experiments:
pancreatic acinar cells = assay: Amylase secretion from isolated pancreatic acinar cells; type: cell-based, mouse; settings: 30 pM CCK or 1 μM carbachol, n=12, means±s.e.m.
Protocol: Pancreatic acini were prepared by collagenase digestion method. Amylase secretion experiments were performed according to Ohnishi et al. (28) with slight modifications. Briefly, isolated acini were suspended in an incubation buffer [consisting of 10 mM HEPES (pH 7.4), 127 mM NaCl, 4.7 mM KCl, 0.6 mM MgCl2, 1.3 mM CaCl2, 0.6 mM Na2HPO4, 2.0 mg/ml glucose, Eagle's MEM amino acids supplement, 2 mM L-glutamine, 1% BSA, 0.01% soybean trypsin inhibiter] as previously described (28) and preincubated at 37° C. for 30 minutes. After preincubation, the acini were centrifuged, resuspended in fresh incubation buffer, and incubated at 37° C. in the presence or absence of 30 pM CCK or 1 μM carbachol. Amylase released into the supernatant during incubation was quantified using Amylase B-test WAKO (WAKO PURE CHEMICAL INDUSTRIES). Amylase secretion was normalized as the amount released into the medium relative to the total amylase content in the pancreatic acinar cells (expressed as % amylase release).

Rab3 isoforms = assay: In vitro binding assay (cosedimentation, GST-Noc2 on glutathione beads); settings: lysates of COS-1 cells transfected with FLAG-tagged Rab3 isoforms; GDP-βS or GTP-γS
Protocol: Pancreatic islets were isolated by collagenase digestion method in a conventional manner (27). The pancreatic islets were cultured for 48 hours in RPMI1640 medium in the presence or absence of PTX (30 ng/ml). Batch incubation was performed as previously described (27). Insulin released into the medium was measured by radioimmunoassay (EIKEN CHEMICAL). Recombinant adenoviruses carrying either LacZ, Noc2 wt (wild-type), or Noc2AAA (mutant) cDNA were generated according to the manufacturer's instructions (STRATAGENE). For preparation of Noc2AAA, Trp-Phe-Tyr (residues 154–156) were replaced with three alanine residues as previously described (24). […] Lysate from COS-1 cells transfected with a Flag-tagged Rab3 isoforms was evaluated for binding to the GST-Noc2 wild-type (Noc2 wt) or the GST-Noc2 mutant (Noc2AAA) in the presence of GTP-γS.
Wild type Noc2 and mutant Noc2 (Noc2AAA), both full-length, were expressed as GST-fusion proteins and purified according to the manufacturer's instructions (AMERSHAM). […] Briefly, lysates from COS-1 cells transfected with FLAG-tagged Rab3 isoforms and Rab5 were assessed for binding to GST-Noc2 immobilized on glutathione beads in the presence of GDP-βS or GTP-γS. Rab3 isoforms and Rab5 and GST-Noc2 were detected by immunoblotting with anti-Flag antibody or immunoglobulin G-purified antibody against rat Noc2.

Rab5A = target: T1, Rab5A; assay: as above; settings: lysates of COS-1 cells transfected with FLAG-tagged Rab5; GDP-βS or GTP-γS
Protocol: Wild type Noc2 and mutant Noc2 (Noc2AAA), both full-length, were expressed as GST-fusion proteins and purified according to the manufacturer's instructions (AMERSHAM). Full-length Rab3A, B, C and D and Rab5 cDNAs were subcloned into pFLAG-CMV-2 (SIGMA). For cosedimentation assays, COS-1 cells were transfected with each of the plasmids using LipofectAMINE (INVITROGEN). Following the transfection, the cells were sonicated in a buffer [20 mM HEPES, pH 7.4, 200 mM NaCl, 1 mM dithiothreitol, 5 mM MgCl2, 1 mM ATP and 0.26% (v/v) CHAPS]. In vitro binding assay was performed as previously described (15). Briefly, lysates from COS-1 cells transfected with FLAG-tagged Rab3 isoforms and Rab5 were assessed for binding to GST-Noc2 immobilized on glutathione beads in the presence of GDP-βS or GTP-γS. Rab3 isoforms and Rab5 and GST-Noc2 were detected by immunoblotting with anti-Flag antibody or immunoglobulin G-purified antibody against rat Noc2.

[1] = pancreatic acini of Noc2−/− mice, basal level 4.9±0.5%
[2] = pancreatic acini of wild-type mice, basal level 5.6±0.9%

| Molecule | % amylase released of total amylase content (pancreatic acinar cells; [1]) | % amylase released of total amylase content (pancreatic acinar cells; [2]) | binding to Rab3 isoforms (Rab3A–D) (Rab3 isoforms) | binding to Rab5A (Rab5A) |
| --- | --- | --- | --- | --- |
| C[N+](C)(C)CCOC(N)=O [carbachol, reference compound] | 6.2±0.5% | 15.6±0.8% |  |  |
| cholecystokinin (peptide, UniProt P06307 21-115, looked up, Cholecystokinin) Cholecystokinin: QPVPPADPAGSGLQRAEEAPRRQLRVSQRTDGESRAHLGALLARYIQQARKAPSGRMSIVKNLQNLDPSHRISDRDYMGWMDFGRRSAEEYEYPS | 5.8±0.5% | 13.0±0.7% |  |  |
| Noc2: full-length wild type Noc2 expressed as GST-fusion protein (protein, left off: a dimerising Fc or GST, full-length wild type Noc2 expressed as GST-fusion protein) MADTIFSSGNDQWVCPNDRQLALRAKLQTGWSVHTYQTEKQRRSQCLSPGELEIILQVIQRAERLDILEQQRIGRLVERLETMQRNVMGNGLSQCLLCGEVLGFLGSSSVFCKDCRKKVCTKCGIEASPGQKRPLWLCKICSEQREVWKRSGAWFYKGLPKYILPLKTPGRADDPHFRPLPVEPTETQPPSAETSRVYTWARGRVVSSDSDSDSDLSSSSLEDRPLPSGVKGTKGDKPRGDSGASMESPRLGPARPPSHLSGSQSSLGSEAGTGATEPQGGTPAQPEPRVPGKRHTWATPRY |  |  | binds to all of the isoforms of Rab3 in a GTP-dependent manner | not to Rab5A |
| Noc2AAA: mutant Noc2, Trp-Phe-Tyr (residues 154–156) replaced with three alanine residues, GST-fusion protein (protein) MADTIFSSGNDQWVCPNDRQLALRAKLQTGWSVHTYQTEKQRRSQCLSPGELEIILQVIQRAERLDILEQQRIGRLVERLETMQRNVMGNGLSQCLLCGEVLGFLGSSSVFCKDCRKKVCTKCGIEASPGQKRPLWLCKICSEQREVWKRSGAAAAKGLPKYILPLKTPGRADDPHFRPLPVEPTETQPPSAETSRVYTWARGRVVSSDSDSDSDLSSSSLEDRPLPSGVKGTKGDKPRGDSGASMESPRLGPARPPSHLSGSQSSLGSEAGTGATEPQGGTPAQPEPRVPGKRHTWATPRY |  |  | does not bind any isoform of Rab3 |  |
